Data set [1] concerns the target ND-HBD*-GFP-Flag (mouse | not stated) (UniProt Q9D2Y4). Put plainly: SiMPull.
In data set [2] the target is MLKL in membrane fraction (chemically cross-linked) (UniProt Q9D2Y4). In words: cross-linking.
The target of data set [3] is ND-HBD*-3×HA (mouse | not stated) (UniProt Q9D2Y4). In words: non-reducing SDS-PAGE with immunoblot. (In general: Immunoblotting shows a protein as a band on a membrane.)
Data set [4] concerns the molecule itself. Put plainly: non-reducing SDS-PAGE with immunoblot.

By stoichiometry N is commonly meant a count of units in the complex or per binding partner.

In turn, “ND-HBD*-GFP-Flag (from UniProt Q9D2Y4-2 1-190)” gave a stoichiometry N in data set [1] below 4.

In data set [2], “MLKL in membrane fraction (chemically cross-linked) (from UniProt Q9D2Y4 1-472) (natural protein)” gave a stoichiometry N above 4.

In data set [3], “ND-HBD*-3×HA (from UniProt Q9D2Y4-2 1-190)” gave a stoichiometry N of 4.

B1: endogenous MLKL of L929 cells (natural protein, mouse (endogenous in L929), UniProt Q9D2Y4-2 1-464, looked up)
chain: MDKLGQIIKLGQLIYEQCEKMKYCRKQCQRLGNRVHGLLQPLQRLQAQGKKNLPDDITAALGRFDEVLKEANQQIEKFSKKSHIWKFVSVGNDKILFHEVNEKLRDVWEELLLLLQVYHWNTVSDVSQPASWQQEDRQDAEEDGNENMKVILMQLQISVEEINKTLKQCSLKPTQEIPQDLQIKEIPKEHLGPPWTKLKTSKMSTIYRGEYHRSPVTIKVFNNPQAESVGIVRFTFNDEIKTMKKFDSPNILRIFGICIDQTVKPPEFSIVMEYCELGTLRELLDREKDLTMSVRSLLVLRAARGLYRLHHSETLHRNISSSSFLVAGGYQVKLAGFELSKTQNSISRTAKSTKAERSSSTIYVSPERLKNPFCLYDIKAEIYSFGIVLWEIATGKIPFEGCDSKKIRELVAEDKKQEPVGQDCPELLREIINECRAHEPSQRPSVDGILERLSAVEESTDKKV
As to B1, the “stoichiometry N” value in data set [4] stood at 4.

For the origin of these results see paper PMC3879712 (Cell Research, 2013).
